B1: Twister Ribozyme (parent)
chain: AACACUGCCAAUGCCGGUCCCAAGCCCGGAUAAAAGUGGAGGGGGCGG

Variants of: B1
Experiment: self-cleavage, relative activity (ratio to wild type); higher = more cleavage; co-transcriptional

Row | Variant | self-cleavage
1 | A23U G38U | 0.236
2 | A23U G38C | 0.499
3 | A23U G38A | 0.342
4 | A23C C27U | 0.0937
5 | G24C G29A | 0.132
6 | G24C G29U | 0.0988
7 | A22C G41C | 0.195
8 | A23G A30C | 0.0761
9 | A22U G29C | 0.604
10 | A22U G29A | 0.644
11 | A22U G36A | 0.179
12 | A22U G36C | 0.19
13 | A23C G36C | 0.102
14 | A23G U31A | 0.602
15 | A23G U31G | 0.746
16 | A23G U31C | 0.544
17 | G24C G47U | 0.0811
18 | G24A C25U | 0.0836
19 | G24A C25A | 0.115
20 | A22G C46A | 0.227
21 | A22G C46G | 0.328
22 | A23U A34U | 0.121
23 | A23U G28A | 0.211
24 | A23U G28C | 0.249

Row | Variant | self-cleavage
25 | A23U G28U | 0.279
26 | A22G G45C | 0.124
27 | A22U G45U | 0.57
28 | A22U G45C | 0.401
29 | G24A C26U | 0.077
30 | G24U A40C | 0.099
31 | A22U A33G | 0.888
32 | A23G A35C | 0.499
33 | A23G A35G | 0.188
34 | A23G A35U | 0.472
35 | A22C A34C | 0.169
36 | A22C A34G | 0.912
37 | A22C A34U | 0.872
38 | A23G G44A | 0.604
39 | A23G G44U | 0.458
40 | G24C A32G | 0.0875
41 | G24C A32C | 0.118
42 | G24C A32U | 0.13
43 | A23U G39C | 0.0667
44 | A23U G39A | 0.061
45 | A23C G38A | 0.131
46 | A23C G38U | 0.107
47 | A23U U37A | 0.178
48 | A23U U37C | 0.0907

Row | Variant | self-cleavage
49 | A23U U37G | 0.0831
50 | A22C A35G | 1.02
51 | A22C A35C | 1.01
52 | A22U G43A | 0.136
53 | A22U G43U | 0.185
54 | G24A G44U | 0.0885
55 | A22C G45U | 0.946
56 | A22C G45C | 0.491
57 | G24C C27U | 0.0994
58 | A22G C27U | 0.111
59 | A22G C27G | 0.084
60 | A22U G44A | 0.788
61 | A23G G36A | 0.126
62 | A23G G36U | 0.0865
63 | A23G U37G | 0.17
64 | A23G U37A | 0.111
65 | A23U A32G | 0.45
66 | A23C G41U | 0.118
67 | A23C G41A | 0.138
68 | A22C G39A | 0.238
69 | A23U A35U | 0.614
70 | A23U A35G | 0.17
71 | A23U A35C | 0.71
72 | A23G G28A | 0.284

Row | Variant | self-cleavage
73 | A23C | 0.385
74 | A23U | 0.697
75 | A23G | 0.634
76 | A23U G45U | 0.249
77 | A23U G45C | 0.141
78 | A22C G42U | 0.198
79 | G24C A33G | 0.101
80 | A23G C25U | 0.132
81 | A23G C25A | 0.0465
82 | A23U C26G | 0.101
83 | A23C G45U | 0.156
84 | A23C G45A | 0.118
85 | A23G G43C | 0.125
86 | G24C U31G | 0.0739
87 | G24C U31C | 0.108
88 | A23G A40G | 0.123
89 | A23G A40C | 0.0453
90 | A23G A40U | 0.125
91 | A22G G43C | 0.154
92 | A22G G43U | 0.101
93 | A22U G42C | 0.154
94 | A22U G42U | 0.191
95 | A23G A32U | 0.393
96 | A23G A33U | 0.393

Row | Variant | self-cleavage
97 | A23G A33C | 0.187
98 | A23G A33G | 0.281
99 | A22G G39A | 0.101
100 | A22G G39U | 0.109
101 | A23U G44C | 0.578
102 | A22C G48A | 1.01
103 | A22C G48U | 1.03
104 | A22C G48C | 1.16
105 | A22G C25G | 0.0838
106 | A22G C25A | 0.0752
107 | A23G G29C | 0.1
108 | A22G G42C | 0.0934
109 | A22G G42A | 0.0942
110 | A22G G41C | 0.133
111 | A22U G39A | 0.099
112 | A23U G36A | 0.132
113 | A23U G36U | 0.0806
114 | A22C C26U | 0.631
115 | A22C C26G | 0.112
116 | G24C C26A | 0.0895
117 | G24C C26U | 0.126
118 | G24U A34G | 0.189
119 | G24U A34C | 0.101
120 | A22C A40C | 0.102

Row | Variant | self-cleavage
121 | A22C A40U | 0.152
122 | A22U C25G | 0.115
123 | A22U C25A | 0.0894
124 | G24U A30G | 0.111
125 | G24U A30U | 0.109
126 | A22U C46G | 0.816
127 | A22U C46A | 0.764
128 | A22U U37C | 0.236
129 | A22U U37G | 0.554
130 | A23C U37C | 0.0915
131 | A22U U31A | 0.521
132 | A22U U31G | 0.833
133 | G24A G28C | 0.0749
134 | G24A G28U | 0.0869
135 | A23U A33C | 0.186
136 | A23U A33G | 0.18
137 | A23C A34U | 0.0811
138 | A23C A34C | 0.161
139 | A22U G38A | 0.843
140 | A22U G38U | 0.353
141 | A22G A32G | 0.25
142 | G24C U37G | 0.12
143 | G24C U37C | 0.0778
144 | G24C G41C | 0.0814

Row | Variant | self-cleavage
145 | G24C G41U | 0.0978
146 | A23G G45A | 0.332
147 | G24A A32U | 0.0696
148 | G24A A32G | 0.11
149 | A22U G41U | 0.137
150 | A22U A30C | 0.614
151 | G24A A30U | 0.0686
152 | G24A A30C | 0.0875
153 | G24A A30G | 0.125
154 | A23C U31C | 0.247
155 | A23C U31A | 0.363
156 | A23C U31G | 0.274
157 | A23U A40U | 0.0967
158 | A23U A40G | 0.0874
159 | A23G G47A | 0.265
160 | A23G G47C | 0.209
161 | G24A A34U | 0.0893
162 | G24A A34C | 0.0735
163 | A22G U31G | 0.263
164 | A22G A30U | 0.316
165 | A22G A30G | 0.394
166 | A22C C27G | 0.101
167 | A22C C27A | 0.768

Source: the RNAGym collection of RNA variant scans (doi:10.7554/elife.80360)
